Test results from patent publication US20250073311A1, “DOSAGE REGIME” (ZEALAND PHARMA A/S, priority 2021, published 2025).
Numbered stars: 1 amine (or outer) side, 2 acyl side, 3 side chain; on linkers, the order of the positions; unused ones are H or OH. Square brackets hold non-standard residues; d marks the D form. Side chains are listed from the residue outwards. * marks the point of attachment. C20 diacid = O=C(O)CCCCCCCCCCCCCCCCCCC(=O)*; C18 diacid = O=C(O)CCCCCCCCCCCCCCCCC(=O)*; γGlu = O=C(O)[C@H](CCC(=O)[*:2])N[*:1]; AEEA = NCCOCCOCC(=O)O; Aib = CC(C)(N)C(=O)O

Tests used:
[1] = target: human glucagon-like peptide 1 receptor (GLP-1R) (human, UniProt P43220); test: cell-based or functional assay
[2] = target: T1, human GLP-2 receptor (hGLP2-R) (human, UniProt O95838); test: cell-based or functional assay
T1 sequence: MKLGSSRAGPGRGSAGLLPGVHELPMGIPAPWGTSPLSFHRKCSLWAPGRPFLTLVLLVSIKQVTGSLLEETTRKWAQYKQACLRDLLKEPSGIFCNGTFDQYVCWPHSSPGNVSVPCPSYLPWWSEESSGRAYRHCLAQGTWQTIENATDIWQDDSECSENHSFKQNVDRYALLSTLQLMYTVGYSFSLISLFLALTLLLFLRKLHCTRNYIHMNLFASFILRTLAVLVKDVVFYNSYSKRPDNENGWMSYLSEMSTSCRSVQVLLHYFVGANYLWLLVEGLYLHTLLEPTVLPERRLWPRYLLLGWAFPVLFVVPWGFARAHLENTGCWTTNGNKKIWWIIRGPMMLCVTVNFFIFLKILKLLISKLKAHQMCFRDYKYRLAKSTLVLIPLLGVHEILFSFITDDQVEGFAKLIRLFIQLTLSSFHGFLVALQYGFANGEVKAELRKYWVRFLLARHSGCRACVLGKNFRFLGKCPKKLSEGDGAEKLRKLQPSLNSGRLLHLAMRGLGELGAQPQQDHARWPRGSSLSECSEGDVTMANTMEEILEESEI

B1: Compound 9 (peptide)
peptide: H-H[Aib]EGTFTSELATILDGK([γGlu-C18 diacid])AARDFIAWLIEHKITD-OH
SMILES: CC[C@H](C)[C@H](NC(=O)[C@H](Cc1ccccc1)NC(=O)[C@H](CC(=O)O)NC(=O)[C@H](CCCNC(=N)N)NC(=O)[C@H](C)NC(=O)[C@H](C)NC(=O)[C@H](CCCCNC(=O)CC[C@H](NC(=O)CCCCCCCCCCCCCCCCC(=O)O)C(=O)O)NC(=O)CNC(=O)[C@H](CC(=O)O)NC(=O)[C@H](CC(C)C)NC(=O)[C@@H](NC(=O)[C@@H](NC(=O)[C@H](C)NC(=O)[C@H](CC(C)C)NC(=O)[C@H](CCC(=O)O)NC(=O)[C@H](CO)NC(=O)[C@@H](NC(=O)[C@H](Cc1ccccc1)NC(=O)[C@@H](NC(=O)CNC(=O)[C@H](CCC(=O)O)NC(=O)C(C)(C)NC(=O)[C@@H](N)Cc1c[nH]cn1)[C@@H](C)O)[C@@H](C)O)[C@@H](C)O)[C@@H](C)CC)C(=O)N[C@@H](C)C(=O)N[C@@H](Cc1c[nH]c2ccccc12)C(=O)N[C@@H](CC(C)C)C(=O)N[C@H](C(=O)N[C@@H](CCC(=O)O)C(=O)N[C@@H](Cc1c[nH]cn1)C(=O)N[C@@H](CCCCN)C(=O)N[C@H](C(=O)N[C@H](C(=O)N[C@@H](CC(=O)O)C(=O)O)[C@@H](C)O)[C@@H](C)CC)[C@@H](C)CC
EC50 GLP-1 (nM), cAMP AlphaScreen [1]: 0.056 nM
EC50 GLP-2 (nM), cAMP AlphaScreen [2]: 0.056 nM

H-H[Aib]EGSFTSELATILDEQAAK([AEEA-AEEA-KEK-γGlu-C20 diacid])DFIAWLIEHKITD-OH [Compound 66]
EC50 GLP-1 (nM), cAMP AlphaScreen [1]: 0.65 nM
EC50 GLP-2 (nM), cAMP AlphaScreen [2]: 0.18 nM

B2: Compound 8 (peptide)
peptide: H-H[Aib]EGSFTSELATILDGK([γGlu-C18 diacid])AARDFIAWLIEHKITD-OH
SMILES: CC[C@H](C)[C@H](NC(=O)[C@H](Cc1ccccc1)NC(=O)[C@H](CC(=O)O)NC(=O)[C@H](CCCNC(=N)N)NC(=O)[C@H](C)NC(=O)[C@H](C)NC(=O)[C@H](CCCCNC(=O)CC[C@H](NC(=O)CCCCCCCCCCCCCCCCC(=O)O)C(=O)O)NC(=O)CNC(=O)[C@H](CC(=O)O)NC(=O)[C@H](CC(C)C)NC(=O)[C@@H](NC(=O)[C@@H](NC(=O)[C@H](C)NC(=O)[C@H](CC(C)C)NC(=O)[C@H](CCC(=O)O)NC(=O)[C@H](CO)NC(=O)[C@@H](NC(=O)[C@H](Cc1ccccc1)NC(=O)[C@H](CO)NC(=O)CNC(=O)[C@H](CCC(=O)O)NC(=O)C(C)(C)NC(=O)[C@@H](N)Cc1c[nH]cn1)[C@@H](C)O)[C@@H](C)O)[C@@H](C)CC)C(=O)N[C@@H](C)C(=O)N[C@@H](Cc1c[nH]c2ccccc12)C(=O)N[C@@H](CC(C)C)C(=O)N[C@H](C(=O)N[C@@H](CCC(=O)O)C(=O)N[C@@H](Cc1c[nH]cn1)C(=O)N[C@@H](CCCCN)C(=O)N[C@H](C(=O)N[C@H](C(=O)N[C@@H](CC(=O)O)C(=O)O)[C@@H](C)O)[C@@H](C)CC)[C@@H](C)CC
EC50 GLP-1 (nM), cAMP AlphaScreen [1]: 0.22 nM
EC50 GLP-2 (nM), cAMP AlphaScreen [2]: 0.039 nM

B3: Compound 11 (peptide)
peptide: H-H[Aib]EGSFTSELATILDK([γGlu-C18 diacid])LAARDFIAWLIEHKITD-OH
SMILES: CC[C@H](C)[C@H](NC(=O)[C@H](Cc1ccccc1)NC(=O)[C@H](CC(=O)O)NC(=O)[C@H](CCCNC(=N)N)NC(=O)[C@H](C)NC(=O)[C@H](C)NC(=O)[C@H](CC(C)C)NC(=O)[C@H](CCCCNC(=O)CC[C@H](NC(=O)CCCCCCCCCCCCCCCCC(=O)O)C(=O)O)NC(=O)[C@H](CC(=O)O)NC(=O)[C@H](CC(C)C)NC(=O)[C@@H](NC(=O)[C@@H](NC(=O)[C@H](C)NC(=O)[C@H](CC(C)C)NC(=O)[C@H](CCC(=O)O)NC(=O)[C@H](CO)NC(=O)[C@@H](NC(=O)[C@H](Cc1ccccc1)NC(=O)[C@H](CO)NC(=O)CNC(=O)[C@H](CCC(=O)O)NC(=O)C(C)(C)NC(=O)[C@@H](N)Cc1c[nH]cn1)[C@@H](C)O)[C@@H](C)O)[C@@H](C)CC)C(=O)N[C@@H](C)C(=O)N[C@@H](Cc1c[nH]c2ccccc12)C(=O)N[C@@H](CC(C)C)C(=O)N[C@H](C(=O)N[C@@H](CCC(=O)O)C(=O)N[C@@H](Cc1c[nH]cn1)C(=O)N[C@@H](CCCCN)C(=O)N[C@H](C(=O)N[C@H](C(=O)N[C@@H](CC(=O)O)C(=O)O)[C@@H](C)O)[C@@H](C)CC)[C@@H](C)CC
EC50 GLP-1 (nM), cAMP AlphaScreen [1]: 0.32 nM
EC50 GLP-2 (nM), cAMP AlphaScreen [2]: 0.085 nM

H-H[Aib]EGTFTSELATILDK([γGlu-C18 diacid])KAARDFIAWLIEHKITD-OH [Compound 6]
EC50 GLP-1 (nM), cAMP AlphaScreen [1]: 0.058 nM
EC50 GLP-2 (nM), cAMP AlphaScreen [2]: 0.12 nM

H-H[Aib]EGSFTSELATILDAKAAK([AEEA-KEK-γGlu-C20 diacid])DFIAWLIEHKITD-OH [Compound 68]
EC50 GLP-1 (nM), cAMP AlphaScreen [1]: 0.084 nM
EC50 GLP-2 (nM), cAMP AlphaScreen [2]: 0.1 nM

B4: Compound 10 (peptide)
peptide: H-H[Aib]EGTFSSELATILDK([γGlu-C18 diacid])LAARDFIAWLIEHKITD-OH
SMILES: CC[C@H](C)[C@H](NC(=O)[C@H](Cc1ccccc1)NC(=O)[C@H](CC(=O)O)NC(=O)[C@H](CCCNC(=N)N)NC(=O)[C@H](C)NC(=O)[C@H](C)NC(=O)[C@H](CC(C)C)NC(=O)[C@H](CCCCNC(=O)CC[C@H](NC(=O)CCCCCCCCCCCCCCCCC(=O)O)C(=O)O)NC(=O)[C@H](CC(=O)O)NC(=O)[C@H](CC(C)C)NC(=O)[C@@H](NC(=O)[C@@H](NC(=O)[C@H](C)NC(=O)[C@H](CC(C)C)NC(=O)[C@H](CCC(=O)O)NC(=O)[C@H](CO)NC(=O)[C@H](CO)NC(=O)[C@H](Cc1ccccc1)NC(=O)[C@@H](NC(=O)CNC(=O)[C@H](CCC(=O)O)NC(=O)C(C)(C)NC(=O)[C@@H](N)Cc1c[nH]cn1)[C@@H](C)O)[C@@H](C)O)[C@@H](C)CC)C(=O)N[C@@H](C)C(=O)N[C@@H](Cc1c[nH]c2ccccc12)C(=O)N[C@@H](CC(C)C)C(=O)N[C@H](C(=O)N[C@@H](CCC(=O)O)C(=O)N[C@@H](Cc1c[nH]cn1)C(=O)N[C@@H](CCCCN)C(=O)N[C@H](C(=O)N[C@H](C(=O)N[C@@H](CC(=O)O)C(=O)O)[C@@H](C)O)[C@@H](C)CC)[C@@H](C)CC
EC50 GLP-1 (nM), cAMP AlphaScreen [1]: 1.8 nM
EC50 GLP-2 (nM), cAMP AlphaScreen [2]: 0.087 nM

H-H[Aib]EGTFSSELATILDK([γGlu-C18 diacid])KAARDFIAWLIEHKITD-OH [Compound 4]
EC50 GLP-1 (nM), cAMP AlphaScreen [1]: 0.66 nM
EC50 GLP-2 (nM), cAMP AlphaScreen [2]: 0.087 nM

B5: Compound 7 (peptide)
peptide: H-H[Aib]EGTFSSELATILDGK([γGlu-C18 diacid])AARDFIAWLIEHKITD-OH
SMILES: CC[C@H](C)[C@H](NC(=O)[C@H](Cc1ccccc1)NC(=O)[C@H](CC(=O)O)NC(=O)[C@H](CCCNC(=N)N)NC(=O)[C@H](C)NC(=O)[C@H](C)NC(=O)[C@H](CCCCNC(=O)CC[C@H](NC(=O)CCCCCCCCCCCCCCCCC(=O)O)C(=O)O)NC(=O)CNC(=O)[C@H](CC(=O)O)NC(=O)[C@H](CC(C)C)NC(=O)[C@@H](NC(=O)[C@@H](NC(=O)[C@H](C)NC(=O)[C@H](CC(C)C)NC(=O)[C@H](CCC(=O)O)NC(=O)[C@H](CO)NC(=O)[C@H](CO)NC(=O)[C@H](Cc1ccccc1)NC(=O)[C@@H](NC(=O)CNC(=O)[C@H](CCC(=O)O)NC(=O)C(C)(C)NC(=O)[C@@H](N)Cc1c[nH]cn1)[C@@H](C)O)[C@@H](C)O)[C@@H](C)CC)C(=O)N[C@@H](C)C(=O)N[C@@H](Cc1c[nH]c2ccccc12)C(=O)N[C@@H](CC(C)C)C(=O)N[C@H](C(=O)N[C@@H](CCC(=O)O)C(=O)N[C@@H](Cc1c[nH]cn1)C(=O)N[C@@H](CCCCN)C(=O)N[C@H](C(=O)N[C@H](C(=O)N[C@@H](CC(=O)O)C(=O)O)[C@@H](C)O)[C@@H](C)CC)[C@@H](C)CC
EC50 GLP-1 (nM), cAMP AlphaScreen [1]: 0.92 nM
EC50 GLP-2 (nM), cAMP AlphaScreen [2]: 0.019 nM

B6: Compound 5 (peptide)
peptide: H-H[Aib]EGSFTSELATILDK([γGlu-C18 diacid])KAARDFIAWLIEHKITD-OH
SMILES: CC[C@H](C)[C@H](NC(=O)[C@H](Cc1ccccc1)NC(=O)[C@H](CC(=O)O)NC(=O)[C@H](CCCNC(=N)N)NC(=O)[C@H](C)NC(=O)[C@H](C)NC(=O)[C@H](CCCCN)NC(=O)[C@H](CCCCNC(=O)CC[C@H](NC(=O)CCCCCCCCCCCCCCCCC(=O)O)C(=O)O)NC(=O)[C@H](CC(=O)O)NC(=O)[C@H](CC(C)C)NC(=O)[C@@H](NC(=O)[C@@H](NC(=O)[C@H](C)NC(=O)[C@H](CC(C)C)NC(=O)[C@H](CCC(=O)O)NC(=O)[C@H](CO)NC(=O)[C@@H](NC(=O)[C@H](Cc1ccccc1)NC(=O)[C@H](CO)NC(=O)CNC(=O)[C@H](CCC(=O)O)NC(=O)C(C)(C)NC(=O)[C@@H](N)Cc1c[nH]cn1)[C@@H](C)O)[C@@H](C)O)[C@@H](C)CC)C(=O)N[C@@H](C)C(=O)N[C@@H](Cc1c[nH]c2ccccc12)C(=O)N[C@@H](CC(C)C)C(=O)N[C@H](C(=O)N[C@@H](CCC(=O)O)C(=O)N[C@@H](Cc1c[nH]cn1)C(=O)N[C@@H](CCCCN)C(=O)N[C@H](C(=O)N[C@H](C(=O)N[C@@H](CC(=O)O)C(=O)O)[C@@H](C)O)[C@@H](C)CC)[C@@H](C)CC
EC50 GLP-1 (nM), cAMP AlphaScreen [1]: 0.17 nM
EC50 GLP-2 (nM), cAMP AlphaScreen [2]: 0.063 nM

H-H[Aib]EGTFTSELATILDEQAAK([AEEA-AEEA-KEK-γGlu-C20 diacid])DFIAWLIEHKITD-OH [Compound 67]
EC50 GLP-1 (nM), cAMP AlphaScreen [1]: 0.16 nM
EC50 GLP-2 (nM), cAMP AlphaScreen [2]: 0.22 nM
